# Changes are numbered by the printed parent chain. Numbers in names are those of the source.
# B1: PG-inhibiting protein 2 of Phaseolus vulgaris pv Pinto (PvPGIP2) (natural protein)
# chain: ELCNPQDKQALLQIKKDLGNPTTLSSWLPTTDCCNRTWLGVLCDTDTQTYRVNNLDLSGLNLPKPYPIPSSLANLPYLNFLYIGGINNLVGPIPPAIAKLTQLHYLYITHTNVSGAIPDFLSQIKTLVTLDFSYNALSGTLPPSISSLPNLVGITFDGNRISGAIPDSYGSFSKLFTSMTISRNRLTGKIPPTFANLNLAFVDLSRNMLEGDASVLFGSDKNTQKIHLAKNSLAFDLGKVGLSKNLNGLDLRNNRIYGTLPQGLTQLKFLHSLNVSFNNLCGEIPQGGNLQRFDVSAYANNKCLCGSPLPACT
# B2: PvPGIP2.Q224K (natural protein)
# chain: B1 chain with Q224K
# B3: PvPGIP2.Q224E (natural protein)
# chain: B1 chain with Q224E
# Legend:
# [1] = target: T1, FpPG.A274T (Fusarium phyllophilum) (UniProt Q07181)
# T1 sequence: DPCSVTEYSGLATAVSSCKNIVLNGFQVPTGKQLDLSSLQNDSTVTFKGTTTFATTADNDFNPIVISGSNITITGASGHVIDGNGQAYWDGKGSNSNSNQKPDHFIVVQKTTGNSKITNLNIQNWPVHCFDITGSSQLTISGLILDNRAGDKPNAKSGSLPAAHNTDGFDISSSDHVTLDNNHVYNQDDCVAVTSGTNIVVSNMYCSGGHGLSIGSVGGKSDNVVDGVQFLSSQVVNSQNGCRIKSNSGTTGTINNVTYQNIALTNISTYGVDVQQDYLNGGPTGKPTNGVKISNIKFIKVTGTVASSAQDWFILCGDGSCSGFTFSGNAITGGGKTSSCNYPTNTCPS
# [2] = target: T2, FpPG.S120N-N121K-S122D (Fusarium phyllophilum) (UniProt Q07181)
# T2 sequence: T1 sequence with S96N, N97K, S98D, T250A
# [3] = target: T3, FpPG.S363K (Fusarium phyllophilum) (UniProt Q07181)
# T3 sequence: T1 sequence with T250A, S339K
# [4] = target: T4, polygalacturonase of Fusarium phyllophilum (FpPG) (Fusarium phyllophilum) (UniProt Q07181)
# T4 sequence: T1 sequence with T250A
# [5] = target: T5, FpPG.K310T (Fusarium phyllophilum) (UniProt Q07181)
# T5 sequence: T1 sequence with T250A, K286T
# [6] = target: Polygalacturonase 1 of Colletotrichum lupini (CluPG1) strain SHK78813 (Colletotrichum lupini)
# [7] = target: T6, FpPG.L303E (Fusarium phyllophilum) (UniProt Q07181)
# T6 sequence: T1 sequence with T250A, L279E
Binder,"fold loss of inhibition by PvPGIP2 against wild type FpPG, agar diffusion assay (Figure 5A) [1] [fold]","fold reduction of the efficiency of inhibition by PvPGIP2 against wild type FpPG, agar diffusion assay (Figure 5A) [2] [fold]",amount of PGIP causing 50% inhibition of one agarose diffusion unit of the PG (agar diffusion assay) [3] [pg],amount of PGIP causing 50% inhibition of one agarose diffusion unit of the PG (agar diffusion assay) [4] [pg],amount of PGIP causing 50% inhibition of one agarose diffusion unit of the PG (agar diffusion assay) [5] [pg],amount of PGIP causing 50% inhibition of one agarose diffusion unit of the PG (agar diffusion assay) [6] [pg],amount of PGIP causing 50% inhibition of one agarose diffusion unit of the PG (agar diffusion assay) [7] [pg],amount of PGIP causing 50% inhibition of one agarose diffusion unit of the PG (agar diffusion assay); ∞ indicates > 1500 ng [3] [pg],amount of PGIP causing 50% inhibition of one agarose diffusion unit of the PG (agar diffusion assay); ∞ indicates > 1500 ng [4] [pg],amount of PGIP causing 50% inhibition of one agarose diffusion unit of the PG (agar diffusion assay); ∞ indicates > 1500 ng [5] [pg]
B1,150,25,2000,2000,2000,2500,2000,,,
B2,,,,,,2500,20000,> 1.5e+06,> 1.5e+06,> 1.5e+06
B3,,,2000,2000,2000,1100,2000,,,

# Reference: article PMC3834070
